The record followed here is publication PMC11079029 (2024).

The target of the experiment is PRPF40A WW12 (tandem WW domains, residues 141-236) (human, UniProt O75400 141-236). Kind of experiment: ITC. (In ITC the heat of successive injections is recorded.)

In general, Kd refers to the equilibrium constant for the complex coming apart. Low values mean tighter binding, high ones weaker binding.

PRPF40A WW12 (tandem WW domains, residues 141-236), sequence (O75400 141-236): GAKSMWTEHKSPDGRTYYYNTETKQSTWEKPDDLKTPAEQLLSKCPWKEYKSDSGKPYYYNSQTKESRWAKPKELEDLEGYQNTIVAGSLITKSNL

B1: GB1-tagged polyproline peptide P16 (peptide)
chain: GAMSGSPPPPPPPPPPPPPPPPSGSN
As for B1, the Kd stood at 3.35 µM.

B2: GB1-polyproline peptide P10 (peptide)
chain: GAMSGSPPPPPPPPPPSGSN
As to B2, the affinity, expressed as Kd, was 28.6 µM. Compared with the last molecule, the Kd is about 8.5-fold higher.
